Target: T1, recombinant PD-L1 (UniProt Q9NZQ7 19-238, limits assumed)
T1 construct: also called Programmed Death-Ligand 1
Assay: SPR, Biacore T200, multi-cycle kinetics, hTT-01 captured on Protein A chip, PD-L1 as analyte, 25 C
Procedure: The chip contains MabSelect SuRe ligand on the surface, allowing orientation-specific binding of the Fc region of an antibody.
The assay was performed by using the Kinetic/Affinity wizard. The Flow path was 2-1, as the ligand was injected and captured in Flow cell 2 and Flow cell 1 acted as a reference. A series of concentrations of PD-L1 were injected over the reference and the ligand surface consecutively as the association phase with short dissociation phases in between by injection running buffer. Then regeneration solution was injected as the regeneration phase. All the procedures were conducted at 25° C.

T1 sequence (Q9NZQ7 19-238 limits assumed): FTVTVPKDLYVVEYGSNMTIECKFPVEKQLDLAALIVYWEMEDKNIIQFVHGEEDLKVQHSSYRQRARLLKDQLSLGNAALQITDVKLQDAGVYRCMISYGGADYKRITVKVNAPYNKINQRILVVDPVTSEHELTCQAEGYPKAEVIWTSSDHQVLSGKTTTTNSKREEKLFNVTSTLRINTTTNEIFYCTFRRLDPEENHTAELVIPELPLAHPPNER

B1: humanized anti-PD-L1 monoclonal antibody hTT-01 (antibody, V domains shown)
VH: EVQLVESGGGLVKPGGSLRLSCAASGFSLSNYVMSWVRQAPGKGLEWVATISSGGRYIYYTDSVKGRFTISRDNAKNSLYLQMNSLRAEDTAVYYCARDGSTLYYFDYWGQGTTVTVSS
VL: QTVLTQSPATLSLSPGERATLSCSASSSVDYMYWYQQKPGQAPRLLIYDTSNLATGIPARFSGSGSGTDFTLTISSLEPEDFATYYCQQWSSSPPITFGQGTKVEIK
notes: It was captured through its Fc on a Protein A chip, and an anti-human IgG secondary antibody was used in FACS; also called TT-01 humanized monoclonal antibody
With B1 the Kd was 2.56 nM, the “half-life (t1/2) of the interaction” value was 1.31 h and the koff was 0.000147 s⁻¹. For the same binder, the kon was 57700 M⁻¹ s⁻¹.

Reference: patent publication US20250288612A1 (TOPMUNNITY THERAPEUTICS TAIWAN, published 2025)
